Experimental findings from patent publication US20220296690A1 (Pieris, published 2022) are described below.

For this assay, the target named is T1, Recombinant human CTLA-4 (human, UniProt P16410 36-161, limits assumed).
T1 sequence (looked up): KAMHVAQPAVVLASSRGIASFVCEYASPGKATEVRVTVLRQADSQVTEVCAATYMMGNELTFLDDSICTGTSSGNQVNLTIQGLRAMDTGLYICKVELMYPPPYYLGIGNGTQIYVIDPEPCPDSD
Description: ELISA; recombinant human CTLA-4 coated at 5 µg/mL, T cell culture supernatant added, detected with rabbit anti-NGAL polyclonal antibody and goat anti-rabbit IgG-HRP. Here is the method: FIG. 2: Detection of functional T-cell secreted CTLA-4 antagonist by ELISA. The supernatant of human peripheral blood T cells, mock-transduced or transduced with pSIN-(NFAT)6-αCTLA-4 and cultured under activatory conditions (cf. Example 1 and FIG. 1) was analyzed for the presence of functionally active CTLA-4 antagonist SEQ ID NO: 28 by ELISA. Recombinant human CTLA-4 was coated on an ELISA plate as described in Example 1, and culture supernatants of transduced and mock-transduced T cells were added. Plate-bound SEQ ID NO: 28 was detected by primary staining with an anti-NGAL polyclonal antibody from the rabbit, secondary staining using goat anti rabbit IgG-HRP and addition of a chromogenic HRP substrate as described in Example 1.
Supernatants were analyzed for the presence of functionally active Anticalin-based CTLA-4 antagonist by ELISA as described in the following: Recombinant human CTLA-4 at a concentration of 5 μg/mL in PBS was added to each well of a 384 well ELISA plate and incubated over night at 4° C. […] Subsequently, rabbit anti-NGAL polyclonal antibody at a concentration of 1 μg/mL in PBS/0.1% (w/v) Tween20/2% (w/v) BSA was added, and bound antibody was detected using goat anti-rabbit IgG-HRP in a dilution of 1:5,000 in PBS/0.1% (w/v) Tween20/2% (w/v) BSA. […] Fluorescence signals in RFU (relative fluorescence units) were measured using a plate fluorescence reader.

B1: Anticalin-based CTLA-4 antagonist with Strep-tag II, mature processed secreted form (SEQ ID NO: 28) (designed binder)
chain: QDSTSDLIPAPPLSKVPLQQNFQDNQFQGKWYVVGLAGNRILRQDQHPMLMYATIYELKEDKSYQVTSVISSHKKCLYPIATFVPGSQPGEFTLGNIKSYGDKVSYLVRVVSTNYNQHAMVFFKHADTNYESFSITLYGRTKELTSELKENFIRFSKSLGLPENHIVFPVPIDQCIDGSAWSHPQFEK
notes: also called anti-CTLA-4 Anticalin; αCTLA-4
With B1, the binding result is on record as “binds”.
